Results: article PMC12207404, “Significance of the CTP-binding motif for the interactions of S. coelicolor ParB with DNA, chromosome segregation, and sporogenic hyphal growth” (Nucleic Acids Research, 2025)

Assays:
[1] = test system: ScParB (Streptomyces coelicolor); experiment: BLI; details: no CTP, BLI: 100 mM Tris-HCl pH 8.0, 100 mM NaCl, 1 mM MgCl2, 0.005% Tween 20, 30 C, EMSA: 100 mM Tris-HCl pH 8.0, 100 mM NaCl, 10% glycerol, 1 mM DTT, 1 mM EDTA …
[2] = target: T1, ScParB (S. coelicolor ParB) (Streptomyces coelicolor, UniProt Q9RFM2); experiment: TNP-CTP fluorescence enhancement at […] nm; type: binding; details: 1 μM protein, 5 μM TNP-CTP, no DNA, 1 mM MgCl2, pH 8.0, room temperature; labelled compound
T1 construct: full-length; N-terminal GST fusion from pGEX-6P-1_parB, GST removed with PreScission protease; expressed in E. coli BL21 pLysS; dimer

[3] = target: the molecule itself; experiment: cross-linking; glutaraldehyde (0.03%, 0.06% or 0.12%), 4 μM ScParB variant, 100 mM Tris-HCl pH 8.0, 100 mM NaCl, 1 mM MgCl2, 0.005% Tween 20, 30°C, 30 min; optionally 4 mM CTP or 4 μM 34-bp parS dsDNA; SDS-PAGE, Coomassie, percent of dimer and HMW complex of the lane's total signal
[4] = target: the molecule itself; experiment: two-hybrid; bacterial two-hybrid (BACTH): pUT18C and pKT25 derivatives cotransformed into E. coli BTH101; blue colonies on LB agar with X-gal and 0.5 mM IPTG, 30°C, and β-galactosidase activity (Miller units)

T1 sequence (Q9RFM2 entry or part of it): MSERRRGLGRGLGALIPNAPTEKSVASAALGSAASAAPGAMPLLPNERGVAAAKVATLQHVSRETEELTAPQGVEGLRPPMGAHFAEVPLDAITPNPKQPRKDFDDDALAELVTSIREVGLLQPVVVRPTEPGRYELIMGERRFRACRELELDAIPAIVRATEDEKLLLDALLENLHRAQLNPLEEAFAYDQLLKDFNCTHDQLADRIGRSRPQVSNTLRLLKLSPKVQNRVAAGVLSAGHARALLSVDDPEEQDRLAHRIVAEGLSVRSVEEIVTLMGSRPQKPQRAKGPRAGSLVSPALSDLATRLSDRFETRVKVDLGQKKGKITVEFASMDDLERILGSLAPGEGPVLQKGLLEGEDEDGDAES

## 300-bp parS, one-end biotin
[1]
  Kd: 271 nM

## 300-bp parS, two-end biotin
[1]; Discussion prints 176
  Kd: 167 nM

## Nc1ccn([C@@H]2O[C@H](COP(=O)(O)OP(=O)(O)OP(=O)(O)O)[C@H]3OC4(O[C@H]32)C([N+](=O)[O-])=CC(=[N+]([O-])O)C=C4[N+](=O)[O-])c(=O)n1 (some centres unmarked) [TNP-CTP, 2′,3′-O-trinitrophenyl-cytidine-5′-triphosphate]
[2]
  relative fluorescence (RU): 1.16 ± 0.06 RU

B1: ScParB^R142A, purified recombinant (natural protein)
chain: MSERRRGLGRGLGALIPNAPTEKSVASAALGSAASAAPGAMPLLPNERGVAAAKVATLQHVSRETEELTAPQGVEGLRPPMGAHFAEVPLDAITPNPKQPRKDFDDDALAELVTSIREVGLLQPVVVRPTEPGRYELIMGEARFRACRELELDAIPAIVRATEDEKLLLDALLENLHRAQLNPLEEAFAYDQLLKDFNCTHDQLADRIGRSRPQVSNTLRLLKLSPKVQNRVAAGVLSAGHARALLSVDDPEEQDRLAHRIVAEGLSVRSVEEIVTLMGSRPQKPQRAKGPRAGSLVSPALSDLATRLSDRFETRVKVDLGQKKGKITVEFASMDDLERILGSLAPGEGPVLQKGLLEGEDEDGDAES
notes: source: E. coli BL21 (DE) pLysS, purified (Glutathione Sepharose 4B, cleaved with PreScission protease); not shown: GST, N-terminal, cleaved
[3]
  fold enhancement of dimerization against wild-type ScParB: ≤ 3 fold

B2: ScParB^R142A, bacterial two-hybrid fusion (natural protein)
chain: MSERRRGLGRGLGALIPNAPTEKSVASAALGSAASAAPGAMPLLPNERGVAAAKVATLQHVSRETEELTAPQGVEGLRPPMGAHFAEVPLDAITPNPKQPRKDFDDDALAELVTSIREVGLLQPVVVRPTEPGRYELIMGEARFRACRELELDAIPAIVRATEDEKLLLDALLENLHRAQLNPLEEAFAYDQLLKDFNCTHDQLADRIGRSRPQVSNTLRLLKLSPKVQNRVAAGVLSAGHARALLSVDDPEEQDRLAHRIVAEGLSVRSVEEIVTLMGSRPQKPQRAKGPRAGSLVSPALSDLATRLSDRFETRVKVDLGQKKGKITVEFASMDDLERILGSLAPGEGPVLQKGLLEGEDEDGDAES
notes: also called R142A-substituted variant; source: bacterial two-hybrid fusion (pUT18C and pKT25 derivatives), in E. coli BTH101
[4]
  fold enhancement of dimerization against wild-type ScParB: ≤ 3 fold
